# Reference: PMC8163975 (2021)
# Where two headings read alike, the source gives them in different places.
# T1: RALA•mGppNHp (human, UniProt P11233 1-206)
# T1 chain: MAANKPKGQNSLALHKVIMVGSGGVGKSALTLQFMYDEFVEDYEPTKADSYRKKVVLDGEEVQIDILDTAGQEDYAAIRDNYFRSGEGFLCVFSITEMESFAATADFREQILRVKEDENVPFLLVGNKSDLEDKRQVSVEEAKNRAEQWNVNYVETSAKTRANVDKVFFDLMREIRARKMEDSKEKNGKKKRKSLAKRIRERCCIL
# T2: RRAS1•mGppNHp (human, UniProt P10301 1-218)
# T2 chain: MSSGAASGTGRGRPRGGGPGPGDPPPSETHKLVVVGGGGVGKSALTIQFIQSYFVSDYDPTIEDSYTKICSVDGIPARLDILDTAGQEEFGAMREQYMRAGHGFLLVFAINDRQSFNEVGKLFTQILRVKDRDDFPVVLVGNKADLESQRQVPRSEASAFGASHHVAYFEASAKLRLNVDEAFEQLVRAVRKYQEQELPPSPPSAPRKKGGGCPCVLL
# T3: RAP1B•mGppNHp (human, UniProt P61224 1-184)
# T3 chain: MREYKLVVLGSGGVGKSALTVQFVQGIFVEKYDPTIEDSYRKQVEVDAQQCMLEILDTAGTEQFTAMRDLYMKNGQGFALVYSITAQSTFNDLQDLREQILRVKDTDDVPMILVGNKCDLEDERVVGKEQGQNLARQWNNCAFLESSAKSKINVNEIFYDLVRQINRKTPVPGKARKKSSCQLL
# T4: RAP2A•mGppNHp (human, UniProt P10114 1-183)
# T4 chain: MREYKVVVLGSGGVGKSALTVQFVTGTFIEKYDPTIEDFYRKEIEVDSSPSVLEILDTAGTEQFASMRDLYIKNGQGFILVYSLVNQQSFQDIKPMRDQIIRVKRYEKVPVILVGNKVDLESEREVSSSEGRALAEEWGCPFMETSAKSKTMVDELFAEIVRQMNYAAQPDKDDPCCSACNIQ
# Experiments:
# Test in all cases: FP
# HRAS•mGppNHp = HRAS•mGppNHp (human, UniProt P01112 1-189)
# RIT1•mGppNHp [1] = target: T5, RIT1•mGppNHp (human, UniProt Q92963 1-219)
# T5 sequence (Q92963 whole entry): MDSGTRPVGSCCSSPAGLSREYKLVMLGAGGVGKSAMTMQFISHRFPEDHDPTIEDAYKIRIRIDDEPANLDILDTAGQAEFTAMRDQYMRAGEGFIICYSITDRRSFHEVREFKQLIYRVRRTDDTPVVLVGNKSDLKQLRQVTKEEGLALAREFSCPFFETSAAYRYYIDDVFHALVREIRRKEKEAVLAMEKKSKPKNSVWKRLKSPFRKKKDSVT
# RIT1•mGppNHp [2] = target: T5, RIT1•mGppNHp; remark: listed apart in the source
# RALA•mGppNHp = target: T1, RALA•mGppNHp
# RRAS1•mGppNHp = target: T2, RRAS1•mGppNHp
# RAP1B•mGppNHp = target: T3, RAP1B•mGppNHp
# RAP2A•mGppNHp = target: T4, RAP2A•mGppNHp
# RHEB1•mGppNHp = RHEB1•mGppNHp (human, UniProt Q15382 1-184)
# Sequence of RHEB1•mGppNHp (Q15382 whole entry): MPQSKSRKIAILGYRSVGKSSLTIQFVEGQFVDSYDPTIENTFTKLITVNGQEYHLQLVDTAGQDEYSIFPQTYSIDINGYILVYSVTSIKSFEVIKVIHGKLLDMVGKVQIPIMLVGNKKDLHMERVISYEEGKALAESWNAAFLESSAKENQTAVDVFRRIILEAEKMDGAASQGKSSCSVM
Kd (HRAS•mGppNHp) [µM],Kd (RIT1•mGppNHp [1]) [µM],Kd (RIT1•mGppNHp [2]) [µM],Kd (RALA•mGppNHp) [µM],Kd (RRAS1•mGppNHp) [µM],Kd (RAP1B•mGppNHp) [µM],Kd (RAP2A•mGppNHp) [µM],Kd (RHEB1•mGppNHp) [µM],Binder
10,170,–,–,–,–,–,–,"RASSF4-to-5 variant (RASSF4 RA domain with RASSF5 hotspot residues), MBP fusion (domain or fragment) YNHKTSVFTPADGIKTLVRVNSTMTTLQVLTLLLNKFRVEDGPSEFALYIVHESGERTKLKDCEYPLISRILHGPCEKIARIFLMEADL"
–,–,136,18,33,26,22,37,"RASSF1 RA domain, MBP fusion (domain or fragment) RGTSVRRRTSFYLPKDAVKHLHVLSRTRAREVIEALLRKFLVVDDPRKFALFERAERHGQVYLRKLLDDEQPLRLRLLAGPSDKALSFVLKENDS"
